Data on one molecule can be found in US20260250363A1.

Holding throughout (conditions): remark: other sources report otherwise
In assay [1] the target is T1, SARS-CoV-2 Spike Protein, wild type (R&D, Cat. #10549-CV) (SARS-CoV-2), P0DTC2. Nature of the assay: competition ELISA: blocks biotin-ACE2 binding to coated spike. In general terms: ELISA stands for enzyme-linked immunosorbent assay.
For assay [2], the target named is T2, SARS-CoV-2 AY.1 Spike Protein (R&D, Cat. #10922-CV) (SARS-CoV-2), P0DTC2. The description is as above.
The target of assay [3] is T1, SARS-CoV-2 Spike Protein, wild type …. Described as above. The source holds these as a separate data set.
Assay [4] addresses T3, SARS-CoV-2 C.37 Spike His Protein (R&D, Cat. #10887-CV) (SARS-CoV-2), P0DTC2. Described as above.
For assay [5], the target named is T2, SARS-CoV-2 AY.1 Spike Protein (R&D, …). Nature of the assay: direct ELISA on coated spike.
In assay [6] the target is T1, SARS-CoV-2 Spike Protein, wild type …. The experiment in a line: direct ELISA on coated spike.
The target in assay [7] is T3, SARS-CoV-2 C.37 Spike His Protein (R&D, …). Nature of the assay: direct ELISA on coated spike.
Assay [8] concerns the target T2, SARS-CoV-2 AY.1 Spike Protein (R&D, …). Nature of the assay: BLI (ForteBio), mAb on AHC sensor, spike in solution.
The target of assay [9] is T1, SARS-CoV-2 Spike Protein, wild type …. Described as above.
Assay [10] addresses T3, SARS-CoV-2 C.37 Spike His Protein (R&D, …). Described as above.
Assay [11] has the same target. Nature of the assay: competition ELISA: blocks biotin-ACE2 binding to coated spike. This is another data set of the same source.
The target in assay [12] is T2, SARS-CoV-2 AY.1 Spike Protein (R&D, …). The assay is described as above. The source holds these as a separate data set.

B1: Casirivimab (antibody)
chain 1: QVQLVESGGGLVKPGGSLRLSCAASGFTFSDYYMSWIRQAPGKGLEWVSYITYSGSTIYYADSVKGRFTISRDNAKSSLYLQMNSLRAEDTAVYYCARDRGTTMVPFDYWGQGTLVTVSS
chain 2: DIQMTQSPSSLSASVGDRVTITCQASQDITNYLNWYQQKPGKAPKLLIYAASNLETGVPSRFSGSGSGTDFTFTISGLQPEDIATYYCQQYDNLPLTFGGGTKVEIK
As usually defined, the IC50 is the concentration that inhibits the measured activity by half. A high value points to a need for much substance. What is called EC50 is the concentration needed to bring the measured effect to its halfway point. Low values mean an effect from little substance, high ones a need for much substance. What is called Kd is a measure of binding affinity in units of concentration. In the case of B1, the IC50 in assay [1] worked out at 2.94 nM; in assay [2] it was 0.646 nM; in assay [3] it was 3.73 nM; in [4] it was 1.9 nM; in assay [11] it was 1.39 nM; in assay [12], 0.341 nM. For the same molecule, the EC50 came to 0.041 nM in assay [5], 0.0557 nM in assay [6] and 0.0507 nM in assay [7]. The Kd in [8] was 1.08 nM; in [9], 2.85 nM; in assay [10], 0.511 nM.
